B1: Triticum aestivum GST 1 subunit (25 kDa) (enzyme)
chain: MAGEKGLVLLDFWVSPFGQRVRIALAEKGLPYEYAEEDLMAGKSDRLLRANPVHKKIPVLLHDGRAVNESLIILQYLEEAFPDAPALLPSDPYARAQARFWADYVDKKVYDCGSRLWKLKGEPQAQARAEMLDILKTLDGALGDKPFFGGDKFGFVDAAFAPFTAWFHSYERYGEFSLPEVAPKIAAWAKRCGERESVAKSLYSPDKVYDFIGLLKKKYGIE
notes: Native subunit in wheat shoot extracts; also called TaGST1
B2: WIC 3: recombinant type I wheat GST, SEQ ID No. 7, amino acid SEQ ID No. 8; coding sequence identical in WIC 7 and WIC 8 (protein)
chain: MAPVKLYGATLSWNVTRCVAALEEAGVQYEIVPINFGTGEHKSPDHLARNPFGQVPALQDGDLYVFESRAICKYACRKNKPELLKEGDIKESAMVDVWLEVEAHQYTAALSPILFECLIHPMLGGATDQKVIDDNLVKIKNVLAVYEAHLSKSKYLAGDFLSLADLNHVSVTLCLAATPYASLFDAYPHVKAWWTDLLARPSVQKVAALMKP
modifications: Triticum aestivum L.
B3: WIC 5: recombinant type I wheat GST, SEQ ID No. 9, amino acid SEQ ID No. 10 (protein)
chain: MAPIKLYGMMLSANVTRVTTLLNELGLEFDFVDVDLRTGAHKHPDFLKLNPFGQIPALQDGDEVVFESRAINRYIATKYGASLLPTPSAKLEAWLEVESHHFYPPARTLVYELVIKPMLGAPTDAAEVDKNAADLAKLLDVYEAHLAAGNKYLAGDAFPLADANHMSYLFMLTKSPKADLVASRPHVKAWWEEISARPAWAKTVASIPLPPAV
modifications: Triticum aestivum L.
B4: WIC 4: recombinant type I wheat GST, SEQ ID No. 11, amino acid SEQ ID No. 12; coding sequence identical in WIC 10 (protein)
chain: MAPVKVFGPAMSTNVARVLVCLEEVGAEYEVVDIDFKAMEHKSPEHLVRNPFGQIPAFQDGDLLLFESRAIARYVLRKYKKNEVDLLREGDLKEAAMVDVWTEVDAHTYNPAISPIVYECSSTAHARLPTNQTVVDESLEKLKNVLEVYEARLSKHDYLAGDFVSFADLNHFPYTFYFMATPHAALFDSYPHVKAWWERIMARPAVKKLAAQMVPKKP
modifications: Triticum aestivum L.
B5: WIC 2: recombinant type I wheat GST, SEQ ID No. 5, amino acid SEQ ID No. 6 (protein)
chain: MAPAVKVYGWAVSPFVARPLLCLEEAGVEYELVSMSRAAGDHRQPDFLARNPFGQVPVLEDGDLTLFESRAIARHVLRKHKPELLGCGSPEAEAMVDVWLEVEAHQYNPAASAIVVQCIILPLLGGARDQAVVDENVAKLKKVLEVYEARLSASRYLAGDDISLADLSHFPFTRYFMETEYAPLVAELPHVNAWWEGLKARPAARKVTELMPPDLGLGKKAE
modifications: Triticum aestivum L.

Assays:
[1] = target: the molecule itself; test: subunit composition of purified isoenzymes (anion exchange, reversed-phase HPLC, SDS-PAGE)
Procedure: The component polypeptides in the active fractions were then analysed by silver staining after resolution by sodium dodecyl sulphate polyacrylamide gel electrophoresis (SDS-PAGE). It was concluded that in fenchlorazole-ethyl-treated wheat the polar GSTs were composed of 25 kDa and 26 kDa polypeptides, while the hydrophobic fraction contained 25 kDa, 26 kDa and 24 kDa polypeptides. Further analysis by reversed-phase HPLC confirmed the subunit compositions (FIG. 2). Based on the combined analyses by Q-sepharose, HPLC and SDS-PAGE these GST polypeptides were named as described in Table 1, which also contains details of how these subunits associate together to form the active dimers found in plants and the relative abundance of these subunits in extracts from unsafened and fenchlorazole-ethyl treated (safened) plants.

[2] = Glutathione peroxidase activity toward cumene hydroperoxide; type: biochemical; details: recombinant wheat GST, affinity purified; ± standard error (n = 3)
Procedure: (§1) To assay the recombinant fusion proteins for GST activity, the E. coli were grown in the presence of IPTG and then pelleted by centrifugation. The bacteria were then lysed by sonication and the protein precipitated using 80% ammonium sulphate. After resuspension and desalting, GSTs were purified by affinity chromatography. The WIC 3 fusion protein was purified using sulphobromophthalein-S-glutathione affinity chromatography (Mozer et al. Biochem. 22, 1983, 1068-1072) while the other WIC fusion proteins were purified using glutathione-agarose (Mannervik and Guthenberg. Methods Enzymol. 77 1981, 231-235).The purified enzymes were then assayed for GST activities toward herbicides (Table 3) and GST activities toward non-herbicide substrates and glutathione peroxidase activities toward organic hydroperoxides (Table 4).
(§2) A polyclonal antiserum was raised in a rabbit to a mixture of TaGST1-2 and TaGST1-3. When tested against crude extracts from safener-treated wheat shoots the antiserum recognised both the 25 kDa TaGST1 subunit and the 26 kDa safener-inducible TaGST2 and TaGST3 subunits. The antiserum was then used in conjunction with the antiserum raised to TaGST1-1 to immuno screen the cDNA library prepared from fenchlorazole ethyl treated wheat shoots as described in example 1. Duplicate lifts were taken from the plated out library and the first blot screened with the antiserum raised against TaGST1-2 and TaGST1-3. The second blot was screened with the antiserum raised to TaGST1-1. Five plaques were identified from the first blot which were absent from the second blot corresponding to cDNAs encoding TaGST2 or TaGST3 like polypeptides and theses clones were purified and the respective plasmids sequenced. […] The other three clones ICC. ICP and ICV had identical DNA sequences (SEQ ID No. 17) and predicted amino acid sequence (SEQ ID No. 18). GST ICJ was sub-cloned into the pET 11a vector after using PCR to introduce a Nde 1 restriction site into the translation start site, using the primer 5′ AGGTAGTTACATATGGCCGGAGGA 3′ (SEQ ID No. 19) in the amplification. following sub-cloning, the sequence of GST ICJ was re-checked to ensure no PCR induced errors had been introduced. The recombinant GST ICJ was then expressed in E. coli and purified by S-hexylglutathione affinity chromatography. The purified GST ICJ was assayed for activities as a GST (Table 3) and as a glutathione peroxidase (Table 4). […] GST ICV was finally expressed as the respective beta-galactosidase fusion protein using the Bluescript plasmid and assayed for GST activity (Table 3 ) and glutathione peroxidase activity (Table 4) in crude bacterial lysates. The specific activity of GST ICV toward these substrates was then calculated by I) subtracting the low levels of GST and GPOX activity present due the endogenous activities in the E. coli and ii) determining the proportion of protein in the lysate present as recombinant GST ICV from SDS-PAGE analysis, by densitometry analysis of polypeptides stained with Coomassie blue.

[3] = GST activity toward crotonaldehyde; type: biochemical; details: recombinant wheat GST, affinity purified; ± standard error
Procedure: as §1

[4] = GST activity toward CDNB; type: biochemical; details: recombinant wheat GST expressed in E. coli, affinity purified
Procedure: (§3) The purified isoenzymes were assayed for GST activity toward herbicides using the HPLC-based assays described by Edwards R. and Cole D. J. (Pesticide Biochemistry and Physiology Vol. 54, pp96-104 (1996)) and the results are presented in Table 2. […] These isoenzymes had additional activities as glutathione peroxidases able to reduce linoleic acid hydroperoxide, a major reaction product formed during membrane peroxidation in plants (Williamson and Beverly. J. Cereal Sci. 8, 1988, 155-163).
To confirm that TaGST1 encoded a GST, it was expressed as a fusion protein with beta-galactosidase using the pBluescript plasmid in E. coli strain SOLR. TaGST1 clones were inoculated into LB liquid medium and were grown overnight at 37/C on all orbital shaker in the presence of IPTG. Bacteria were then pelleted by centrifugation, lysed by sonication and assayed for GST activity toward CDNB and analysed by SDS-PAGE and Western blotting using the anti-TaGSTI-I serum. With all six TaGST1 clones, GST activity toward CDNB could be determined in the crude extracts in the range 30-50 nkat/mg crude lysate.
as §1
as §2, with “The specific activity of GST ICV toward these substrates was then calculated by I) subtracting the low levels of GST and GPOX activity present due the endogenous activities in the E. coli and ii) determining the proportion of protein in the lysate present as recombinant GST ICV from SDS-PAGE analysis, by densitometry analysis of polypeptides stained with Coomassie blue.” left out

[5] = GST activity toward herbicide fenoxaprop-ethyl (HPLC-based assay); type: biochemical; details: recombinant wheat GST expressed in E. coli, affinity purified; ± standard error
Procedure: as §3, §1, §2

[6] = GST activity toward benzyl isothiocyanate; type: biochemical; details: recombinant wheat GST, affinity purified; ± standard error
Procedure: as §1

[7] = GST activity toward herbicide fluorodifen (HPLC-based assay); type: biochemical; details: recombinant wheat GST expressed in E. coli, affinity purified; ± standard error
Procedure: as §3, §1, §2

[8] = GST activity toward herbicide metolachlor (HPLC-based assay); type: biochemical; details: recombinant wheat GST expressed in E. coli, affinity purified; ± standard error
Procedure: as §3, §1, §2

[9] = GST activity toward ethacrynic acid; type: biochemical; details: recombinant wheat GST, affinity purified; ± standard error; N.D = not detected
Procedure: as §1

Molecule | binding result [1] | Glutathione peroxidase activity toward cumene hydroperoxide [2] | GST activity toward crotonaldehyde [3] [nkat.mg^−1] | GST activity toward CDNB [4] | GST activity toward fenoxaprop-ethyl [5] [nkat.mg^−1] | GST activity toward benzyl isothiocyanate [6] [nkat.mg^−1] | GST activity toward fluorodifen [7] [nkat.mg^−1] | GST activity toward metolachlor [8] [nkat.mg^−1] | GST activity toward ethacrynic acid [9] [nkat.mg^−1]
B1 | binds |  |  |  |  |  |  |  | 
B2 |  | 1.4 ± 0.3 absorbance change at 340 nm.mg^−1 | 6.3 ± 0.9 | 2,519 nkat.mg^−1 | 0.093 ± 0.002 | 9.0 ± 0.5 | 0.014 ± 0.006 | 0.053 ± 0.004 | 
B3 |  | 1.3 ± 0.2 absorbance change at 340 nm.mg^−1 | 4.5 ± 0.5 | 174 nkat.mg^−1 | 0.067 ± 0.003 | 9.4 ± 2.0 | 0.030 ± 0.002 | 0.040 ± 0.004 | 
B4 |  | 6.2 ± 0.3 absorbance change at 340 nm.mg^−1 | 5.5 ± 0.6 | 980 nkat.mg^−1 | 0.012 ± 0.001 | 4.2 ± 0.4 | 0.036 ± 0.004 | 0.037 ± 0.003 | 1.4 ± 0.3
B5 |  | 28.2 ± 1.7 absorbance change at 340 nm.mg^−1 | 5.5 ± 1.3 | 187 nkat.mg^−1 | 0.085 ± 0.002 | 33.3 ± 4.5 | 0.096 ± 0.002 | 0.512 ± 0.04 | 

— patent US6730828B1, “Isolated nucleic acids encoding a wheat glutathione transferase, plants transformed therewith and methods of use thereof” (Aventis Agriculture Limited, priority 1997, dated 2004)
